Reference: the nanobody polyreactivity screen of Harvey et al. (2022)

Assay: yeast display, Sf9 membrane polyspecificity reagent, FACS + sequencing; frameworks hold sequencing errors
Procedure, shortened: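 Genes from sorted yeast were amplified by colony PCR, read by MiSeq 2 × 250 sequencing and filtered on CDR length. These cells carried a synthetic nanobody library in Saccharomyces cerevisiae BJ5465 and were sorted by FACS into low and high (top ~1%) gates on anti-HA and streptavidin fluorescence. Polyreactivity is labelled according to the gate of origin.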

Sequence	polyreactivity (PSR sort gate)
QVQLVESGGGLVQAGGSLRLSCAASGRIFGKYAMGWYRQAPGKERELVAAISSSGGSTYYADSVKGRFTISRDNAKNTVYLQMNSLKPEDTAVYYCAADAAVSRVYPYDYWGQGTQVTVSS	high polyreactivity
QVKLVESGGGLVQAGGSLRLSCAASGRIFSGYAMGWYIQAPGKESEFVAAITWNGVSTYYADSVKVRFTISRDNAKNTVYLLMNSLKPEDTAVYYCAKDYVYYPSYRGSVNYWGQGTQVTVSS	low polyreactivity
QVQLVESGGGLVQAGGSLRLSCAASGSTFSDNAMGWYRQAPGKERELVAAISSGGSTNYADSVKGRFTISRDNAKNTVYLQMNSLKPEDTAVYYCAREYYSRRYDYWGQGTQVTVSS	low polyreactivity
QVQLVESGGGLVQAGGSLRLSCAASGSTFIFYVMGWNRQAPGKERELVASITGNGTSTYYADSVKGRFTISRDNAKNTVYLQMNSLKPEDTAVYYCNAVFSPSRYDYWGQGTQVTVSS	low polyreactivity
QVQLVESGGGLVKAGGSLRLSCAASGRIFKYYAMGWYRQAPGKERELVAAISSVGSTNYADSVKGRFTISRDNAKNTVYLQMNSLKPEDTGVYYCAAPYQHYDVNYDSWGQGTQVTVSS	low polyreactivity
QVQLVESGGGLVQAGGSLRLSCAASGSTFQGYAMGWYRQAPGKERELVAAISWNGGSTYYADSVKGRFTISRDNAKNTVYLQMNSLKPEDTAVYYCAAYSFAYRFNYWGQGTQVTVSS	high polyreactivity
QVQLVESGGGLVQAGGSLRLSCAASGRTFSSYAMGWYRQAPGKERELVAAINSGGSTNYADSVKGRFTISRDNAKNTVYLQMNSLKPEDTAVYYCNAVTFWGLGYDYWGQGTQVTVSS	low polyreactivity
QVQLVESGGGLVQAGGSLRLSCAASGITFYRYAMGWYRQAPGKEREFVAAITWGSTYYADSVKGRFTISRDNAKNTVYLQMTSLKPEDTAVYYCNKKGYTVGATVGYWGQGTQVTVSS	low polyreactivity
QVQLVESGGGLDQAGGSLRLSCAASGSIFYVNAMGWYRQAPGKERELVAAITSGGSTSYADSVKGRFTISRDNAKNTVYLQMNSLKPEDTAVYYCAADWDYPEQYRVNYEYGYWGLGTQVTVSS	low polyreactivity
QVQLVESGGGLVQAGGSLRLSCAASGSIVDTNAMGWYRQAPGKERELVAAITSTDSTNYADSVKGRFTISRDNAKNTVYLQMNSLKPEDTAVYYCNAALSQLRRGGLAMDYWGQGTQVTVSS	low polyreactivity
QVQLVESGGRLVQAGGSLRLSCAASGRIFVYNAMRWYRQAPGKERELVASITSSGGSTYYADSVKGRFTISRDNAKNTVYLQMNSLKPEDTAVYYCAADVQPDTRSTPEMDYWGQGTQVTVSS	low polyreactivity
QVQLVESGGGIVQAGGSLRLSCAASGSTFDYYAMGWYRQAPGKEMELVAGISASGGSTYYADSVKGRFTISRDNAKNTVYLQMNSLKPEDTAVYYWASYYKPPGYDYWGQGTQVTVSS	low polyreactivity
QVQLVESGGGLVQAGGSLRLSCAASGRIFSRYTMGWYRQAPGKERELVAGITRGGGSTYYADSVKGRFTISRDNAKNTVYLQMNSLKPEDTAVYYCAATFAYHDGDYWGQGTQVTVSS	low polyreactivity
QVQLVESGGGLVQAGGSLRLSCAASGSTAENVMGWYRQAPGKERELVAAISSRGGSTYYADSVKGRFTISRDNAKNTVYLQMNSLKPEDTAVYYCAAEYVSHFSGDRYDYWGQGTQVTVSS	low polyreactivity
QVQLVESGGVLVQAGGSLRLSCAASGRIFDIYAMGWYRQAPGKERELVAGITWRAGSTYYADSVKGRFTISRDNAKNTVYLQMNSLKPEDSAVYFCARDYSRHKGDYWGQGTQVTVSS	low polyreactivity
QVQLVESAGGLVQAGGSLRLSCAASGRNFVDYAMGWYRQAPGKERELVAAITQRGGSTYYADSVKGRFTISRDNAKNTVYLQMNSLKPEDTAVYYCAAVTRFYTKYYWGQGTQVTVSS	high polyreactivity

Sequence	polyreactivity (PSR sort gate)
QVQLVESGVRLVQAGGSLRLSCAASGFNFRRYAMGWYRPAPGKERELVAAISWRSGSTYYADSVKGRFTISRDNAKNTVYLQMNSLKPEDTAVYYCAAKDQATYQLNYWGQGTQVTVSS	high polyreactivity
QVQIVESGGGLVQAGGSLRLSCAASGRIFLPYAMGWYRQAPGKERELVAAITQSGVITSYADSVKGRFTISRDNAKNTVYLQMNSLKPEDTAVYYCATVRTVIVFRFPYSYGYWGQGTQVTVSS	high polyreactivity
QVQLVESGGGLVQAGGSLRVSCAASGNTFGGYAMGWYRQAPGKERELVAAISSSGGSTYYADSVKGRFTISRDNAKNTVYLQMNSLKPEDTAVYYCAAYGGVYGYWTMGYWGQGTQVTVSS	high polyreactivity
QVQLVESGGGLVQAGGSLRLSCAASGLTFYRYAMGWYRQAPGKERELVATIRSGDGTYYADSVKGRFTISRDNAMNTVYFKMNSLKPEDTAVYYCAAKKVYRVYGRYEYWGQGTQVTVSS	high polyreactivity
QVQLVESGGGLVQAGGSLRLSCAASGIIFRYAMGWYRQSPGKERELVARITVGSTYYADSVKGRFTISRDNAKNTVYLQMNSLKPEDTAVYYCNKDSGEDDRWPYDYWGQGTQVTVSS	low polyreactivity
QVQLVESGGCIVQAGGSLRFSCAASGFTFNRYAMGWYRQAPGKERELVAAITRRGGSTYYADSVKGRFTISRDNAKNTVYFQMNSLKPEDTAVYYCNVDFQAYGIPMDYWGQGTQVNVSS	high polyreactivity
QVQLVESGAGLVQEGGRLRLRCAASGFTFMDNAMGCYRKAPGKETQLVAAISRSGGSTYYADSVKGRFTISRDNAKNTVYLQMKSLKPEDTEGFYCAAFLYRSQYSGFEYWGQGTQVTVSS	high polyreactivity
QVQLVESGGGLVQAGGSLRLSCAASGRIFYWNAMGWYRQAPGKEREFVAAISWSGGSTYADSVKGRFTISRDNAKNTVYLQMNSLKPEDTAVYYCATRVSRSFRAYDYWGQGTQVTVSS	high polyreactivity
QVQLVQSGGGLVQAGGSLRLTCAASGRTFVVYAMGWYRQAPGKERQLVASISSIGEITNYADSVKGRFTISRDYAKNTVYLQMNSLKQEDTAVYYCTAPICGSYNTRRAAEYDYWGQGTQVTVSS	low polyreactivity
QVQLVESGGGLVQAGGSLRLSCDASGRIFRKYAMGWYRQAPGKERELVAGITWRGTSTYYADSVKGRFTISRDNAKNTVYLPMNSLKPEDTAVYYCAAEWKGYYVHDYWGQGTQVTVSS	high polyreactivity
QVQLVESGGGLVQAGGSLRLSCASSGFTFPYYAMGGYRQAPGKERELVAAISWGGGSTYYADSVKGRFTISRDNAKNTVYLQMNSLKPEDTAVYYCNAYEYLSAGYDYWGQGTQVTVSS	low polyreactivity
QVQLVESGGGLVQAGGSLRLSCAASGSTFYYYAMGWYRQAPGKERELVASISGGGSTSYADSVKGRFTISRDNAKNTVYLQMNSLKPEDNAVYYCNADPSEYDPNYVVVFSPQKYDYCGQGTQVTVSS	low polyreactivity
QVQLVESGGGLVQAGGSLRLSCAASGSTFAQYVMGWYRQAPWKERELFAAISRGGGRTYYADSVKGRFTISRDNAKNTVYLQMNSLKPEDTAVYYCAAETLGVYDYESYNYYWGQGTQVTVSS	high polyreactivity
QVQLVESGGALVQAGGSLRLSCAASGNTFIPNAMGWYRQAPGKERELVAAIRASGGSTYYADSVKGRFTISRDNAKNTVYLQMNSLKPEDTAVYYCNADIWYKTYDYWGQGTQVTVSS	low polyreactivity
QVQLVESGGGLVQAGGSLRLSCAASGSTFNKYTMGWYRQAPGKEREFVAAISRIGGSTYYADSVKGRFTISRDNAKNTVYLQMNSLKPEDTAVYYCATGVRPLRKKPVEFYHWGQGTQVTVSS	low polyreactivity
QVQLVESGGGLVQAGGSLRLSCAASGSIFSGNAMGWYRQAPGKVRELVAAISRSGGSTYYADSVKGRFTISRDNAKNTVYLQMNSLKPEDTAVYYCAAYRTHGPPRAIRFDYWGQGTQVTVSS	high polyreactivity
